Legend:
[1] = molecular target: T1, peptide representing the neo-epitope of the ADAM17-cleavage product of human AREG (Homo sapiens, UniProt P15514); assay: ELISA of rabbit IgG candidates against peptides representing cleaved and full length AREG; format: binding
T1 construct: host or cells: synthetic peptide
From the text: FIGS. 1A-1C. Isolation of antibodies that selectively recognize a peptide representing cleaved AREG. FIG. 1A: Schematic representation of the AREG cleavage and EGFR activation process, one consequence of which is the internalization of the small transmembrane fragment that remains cell-associated after TACE/ADAM17-mediated cleavage. FIG. 1B: Schematic representation of phage panning strategy using a peptide representing the cleaved AREG neo-epitope adhered to the well and a peptide representing the non-cleaved AREG region in the liquid phase.
Rabbit monoclonal IgG antibodies specific to cleaved-AREG were identified in contracted screening (Oak Biosciences Inc., Sunnyvale, CA, USA) using a recombinant Rabbit naïve phage display library (scFv format, VK-linker-VH) screening platform after four rounds of panning and ELISA validation. For panning, phage was selected against a peptide modeling the ADAM17-cleaved cell-associated epitope of AREG,^12 represented by the N-terminal region of THSMIDSSLSKI (SEQ ID NO: 2), and counter-selected against a peptide spanning this region (SMKTHSMIDSSLSKIAC; SEQ ID NO: 9), representing uncleaved AREG. […] GMF-1A3, referred to hereafter as simply “1A3”, was the antibody chosen for further characterization in this Example.

cleaved Amphiregulin = molecular target: T2, cleaved Amphiregulin (Homo sapiens, UniProt P15514); assay: Immunohistochemistry on multiple organ carcinoma tissue microarrays
T2 construct: tissue BioCoreUSA; host or cells: multiple organ carcinoma tissue microarrays (ten tumour types)
T2 sequence (P15514 188-252): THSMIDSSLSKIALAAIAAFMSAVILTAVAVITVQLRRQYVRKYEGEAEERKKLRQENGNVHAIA
Method: Two multiple organ carcinoma tissue microarrays were purchased from BioCoreUSA (Philadelphia, PA, USA). The slides were deparaffinized in xylene and rehydrated by serial incubations in graded ethanol and then in water in a Histo-Tek® SL Slide Stainer (Sakura Finetek USA, Inc., Torrance, CA, USA). Antigen retrieval was performed in a steamer by boiling slides in a container of citrate buffer (pH 6.0) for 20 min which was then removed for 15 minutes of cooling on the benchtop. Slides were washed in 1× Wash buffer (Dako Agilent, Santa Clara, CA, USA) and endogenous peroxidase was quenched by incubating with Dako Dual Endogenous Enzyme Block for 10 minutes. Slides were washed in 1× Wash buffer, blocked (5% rabbit/10% goat serum in PBS), and immunostained with goat anti-AREG antibody (15 μg/mL; AF262, R&D Systems) or rabbit anti-cleaved AREG 1A3 antibody (10 μg/mL) overnight at 4° C. Slides were washed four times in 1× Wash buffer, followed by incubation for 45 minutes at room temperature in 1:100 dilution of rabbit anti-goat immunoglobulins/HRP or ready-to-use goat antirabbit HRP labelled polymer (Dako). […] The staining intensity was assessed semi-quantitatively using a four-point scale (Negative=0, Low=1, Medium=2, High=3) by two investigators working independently on blinded samples. […]

[2] = molecular target: T3, FL AREG (peptide representing uncleaved AREG) (Homo sapiens, UniProt P15514); assay: Immunoblot of TRF-conjugated AREG peptides, intact cleavage site; format: binding; conditions: 1 μg/mL antibody, 200 ng TRF-conjugated peptide
T3 construct: a peptide spanning this region (SMKTHSMIDSSLSKIAC); host or cells: synthetic peptide conjugated to transferrin
Method: (§1) Monomethyl auristatin E (MMAE) conjugated 1A3 antibody (1A3-VC-PAB-MMAE) was prepared using a kit (CM11409) from CellMosaic Inc. (Woburn, MA, USA) following the manufacturer's instructions. Maleimide-activated valine-citrulline p-aminobenzylcarbamate (VCPAB) MMAE was coupled directly to the antibody after reduction through alkylation.^13 The specificity of 1A3 and 1A3-VC-PAB-MMAE to peptides representing human cleaved-AREG was confirmed by immunoblotting. Briefly, transferrin (TRF) conjugated peptides representing cleaved and uncleaved AREG (200 ng) were electrophoresed on SDS-PAGE gels, transferred to PVDF membrane and probed with 1 μg/mL of 1A3 and 1A3-VC-PAB-MMAE. Horseradish peroxidase-conjugated goat anti-rabbit IgG was used. Antibody binding was detected with enhanced chemiluminescence (ECL; Amersham, Arlington Heights, IL, USA). Furthermore, the characterization and purity of 1A3-VC-PAB-MMAE were analyzed using hydrophobic interaction chromatography (HIC) and size-exclusion chromatography (Cell Mosaic).

[3] = molecular target: T4, Trunc AREG (fragment that remains cell-bound after cleavage by ADAM17) (Homo sapiens, UniProt P15514); assay: Immunoblot of TRF-conjugated AREG peptides, cleaved mimic; format: binding; conditions: 1 μg/mL antibody, 200 ng TRF-conjugated peptide
T4 construct: host or cells: synthetic peptide conjugated to transferrin
Method: as §1

MCF-7 cells = assay: Tubulin staining (microtubule integrity); format: cell-based, human; conditions: 48 h treatment
Method: FIGS. 4A-4E. In vitro 1A3-MMAE cytotoxicity in MCF-7 (FIG. 4A) and MCF-7F (FIG. 4B) cells measured by MTT assay after treatment with 1A3-MMAE, 1A3 or MMAE. FIG. 4C: Clonogenic growth of MCF-7 or MCF-7F cells after exposure to 1A3-MMAE and replating. FIG. 4D: The quantification of clonogenic growth assays in FIG. 4C. (FIG. 4E). Tubulin staining of MCF-7 cells after 48 h treatment with MMAE, 1A3, 1A3-MMAE (40× magnification).

B1: 1A3: Rabbit monoclonal IgG specific to cleaved AREG; VH SEQ ID NO: 3, VL SEQ ID NO: 4 (antibody, V domains shown)
VH: QSVKESEGRLVTPGTPLRLTCTVAGYSLSRYHMCWVRQAPGKGLEWIGMIGGSGRTDYASWAKGRFTISKTSTTVDLKITSPTTEDTATYFCSTVYTDSDGDFWGPGTLVTVSS
VL: AELDMTQTPSSKSVPVGGTVTINCQASESVYSNDRLAWFQQKPGQPPKLLIYYASTLASGVPSRFKGSGSGTQFTLTISDLECADAATYYCQSCYDMSSYGVAFGGGTELEIL
modifications: 1A3 antibody, Heavy chain; 1A3 antibody, Light chain
selectivity for cleaved AREG by ELISA ([1]; IgG format, cleaved vs uncleaved AREG peptide): selectivity for cleaved AREG was confirmed
binding ratio of cleaved AREG to intact AREG as determined by ELISA ([1]; compared among the three antibodies): highest binding ratio
neoplastic cells negative for immunostaining (cleaved Amphiregulin; 370 evaluable cores, ten tumor types): No neoplastic cells were negative
tumors stained in the highest score for cleaved Amphiregulin (cleaved Amphiregulin; breast, prostate, liver and lung tumors): At least 50%
reaction with peptide representing uncleaved AREG by immunoblot [2]: did not react
recognition of truncated AREG peptide by immunoblot [3]: specifically recognized
tubulin disruption (microtubule integrity) (MCF-7 cells): did not
